The source of these data is PMC11742113 (Molecular Biology of the Cell, 2025).

This assay concerns the target T1, S. aureus FtsZ, full length (Staphylococcus aureus, UniProt P0A031 1-390, FITC label, ~0.7 FITC per FtsZ).
T1 sequence: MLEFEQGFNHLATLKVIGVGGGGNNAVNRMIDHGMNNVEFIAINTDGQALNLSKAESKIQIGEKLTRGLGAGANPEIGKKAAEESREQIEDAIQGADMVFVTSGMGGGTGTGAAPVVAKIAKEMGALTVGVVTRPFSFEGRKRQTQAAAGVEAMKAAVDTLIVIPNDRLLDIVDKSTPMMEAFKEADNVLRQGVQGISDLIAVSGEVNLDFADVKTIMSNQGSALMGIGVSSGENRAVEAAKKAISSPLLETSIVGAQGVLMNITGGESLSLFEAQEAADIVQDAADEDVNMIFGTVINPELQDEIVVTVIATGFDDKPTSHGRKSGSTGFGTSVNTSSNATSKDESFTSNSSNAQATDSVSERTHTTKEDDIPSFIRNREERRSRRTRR
Briefly: other fluorescence titration.

B1: S. aureus GpsB (natural protein)
chain: MSDVSLKLSAKDIYEKDFEKTMARGYRREEVDAFLDDIIADYQKMADMNNEVVKLSEENHKLKKELEELRLRVATSRPQDNKSFSSNNTTTNTSSNNVDILKRISNLEKAVFGK
As for B1, binding was characterised by a dissociation constant (Kd) of 53.8 ± 8 µM.
